Results from the nanobody polyreactivity screen of Harvey et al. (2022).

assay: yeast display, Sf9 membrane polyspecificity reagent, FACS + sequencing; frameworks hold sequencing errors
Method in brief: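 A nanobody's polyreactivity label depends on the gate it was sorted from. Yeast display cells were stained with 10% biotinylated, detergent-solubilized Sf9 membrane reagent for 1 hour at 4 °C, enriched on streptavidin microbeads and sorted by FACS. The low and high (top ~1%) gates were set on anti-HA fluorescence for expression and streptavidin fluorescence for reagent binding.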

| Sequence | polyreactivity (PSR sort gate) |
| --- | --- |
| QVQLVESGGGLVQAGGSLRLSCAASGRIFPFNAMGWYRQAPGKERELVAAISSSGGSTYYADSVKGRFTISRDNAKNTVYLQMNSLKPEDTAVYSCAATRNSDGMGYWGQGTEVTVSS | low polyreactivity |
| QVQLVESGGGLVQAGGSLRLSCAASGITFIKNAMGWYRQAPGKERELVAAISRSGGRTYYADSVKGRFTISRDNAKNTVYLQMNSLKPEDTAVYYCAAVTQRSYFYDYWGQGTQVTVSS | high polyreactivity |
| QVQLVESGVGLVQAGGSLRLSCAASGSTFKFYSMGWYRQAPGTERELVASITSSSGPTYFADSVKGRFTNSLDNAKNTVYLQMNSLKQEDTAVYYCAKRPIRYYHLLRGNYWGHGTQVTVSS | low polyreactivity |
| QVQLVESVGGLVQAGGSLRLSCAASGLIFFGNTMGWYRQAPGKDRELVAAISKRGTTYYADSVKGRFKISRDNAKNTVYLQMNSLKPEDTAVYYCAAGGTFFHRLDYYYRSDYWGQGTQVTVSS | high polyreactivity |
| QVQLVESGGGLVQAGGSLRLSFAASGRTFDRNAMGWYRQAPGKERELVARITIDGSTNYADSVKGRFTISRDNAKNTVYLQMNSLKPEDTAVYYCATDQLSLSWYFRPYDYGYWGQGTQVTVSS | high polyreactivity |
| QVQLVESGGGLVQAGGSLRLSCAASGFTFVRYTMGWYRQAPGKERELVAVIRRGGSTYYADSVKGRFTISRDNAKNTVYLQMNSLKPEDTAVYYCNALSALAVEDGYWGQGTQVTVSS | low polyreactivity |
| QVQLVESGGGLVQAGGSLRLSCAASGIIFRSYAMGWYRQAPGKERELVASITSGGSTNYADSVKGRFTNSRDNAKNTVYLQMNSLKPEDTAVYYCAADYYYTSFGGYDYWGQGTQVTVSS | high polyreactivity |
| QVQLVESGGGLVQAGGSLRLTCAASGLTFTYYAMGWYRQAPGKERELVAAISASGGNTYYADSVKGRFTISRDNAKNTVYLQMNSLKPEDTAVFYCAAESSIYRGYGYSGQGTQVTVSS | high polyreactivity |
| QVQLVESGGGLVQAGGSLRLSCAASGRTFWYYARGWYRQAPGKERELVAYADSVKGRFTISRDNAKNTVYLQMNSLKQEDTAVYYCAVGPVVWFSSSLYYTDYYYWGQGTQVTVSS | low polyreactivity |
| QVQLVESGGGLVQAGGSLRLSCAASGRIFARNAMGWYRQAPGKESELVAAINWSGGSTYYADSVKGRFTISRDNAKNTVYLQMNSLKPEDTAVYYCATRSSLFRQYLPWYEYWGQGTQVTVSS | low polyreactivity |
| QVQLVESGGGLVQAGGSLRLSCAASGSTFTGYAMGWYRQAPGKERELVAAISRSGGSTSYADSVKGRFTISRDNAKNTVYLQMNSLKPEDTAVYYCAAQVQGTTRAKQRGGIGELDYWGQGTQLTVSS | low polyreactivity |
| QVQLVESGGGLVQAGGSLRLSCAASGSIFKTNAMGWYRQAPRKERELVAGISNVGSTNYADSVKGRFTISRDNAKNTVYLQMNSLKPEDTAVYYCAAPYTSQTIPDYVRYFIEYDYWGQATQVTVSS | low polyreactivity |
| QVQLVESGGGLVQAGGSLRLSCAASGFTFQRYAMGWYRQAPGKERELVAGITRRSGSTFYADSVKGRFTISRDNAKNNVYLLMNSLKPEDTAVYYCAATVPGLHWIYDFWGQGTQVTVSS | high polyreactivity |
| QVQLVESRGGLVQAGGSLRLSCPDSGYIFFTNSMGWYRQEPGKERELVAAISSAGRTKYADSVKGRFTISRDNAKNTVYLQMNSLKPEDTAVYYCNKAFYYLWGTGYDYWGQGTQVTVSS | low polyreactivity |
| QVQLVESGGGLVQAGGSLRLSCAASGFTFWLYAMGWYRHAPAKEREFVAAISTSGGSTYADSVKGRFTISRDNAKYTVYLQMNSLKPEDTAVYYCNAGYVLYYDYHLFYWGQGTQVTVSS | low polyreactivity |
| QVQLVESGGGLVQAGGSLRLICAASGSTFNIYAMGWYRQAPGKERELVAAITSSGGSTYYAESVKGRFTISRDNGKNTVYLQMNSLKPEYTAVYYCNTDQYSPYEYSSFDSWGQGSQVTVSS | low polyreactivity |
| QVQLVESGGGLVQAGGSLRLSCAASGFTFVYYVMGLYRQAPGKERELVAAINAGGGSTYYADSVKGRFTISRDNAKNTVYLQMNSLKPEDTAVYYCNARVRVRLGRNWSSYYYWGQGTQVTVST | high polyreactivity |
| QVQLVESGGGLVQAGGSLRLSCAASGRIFPGYGMGWYRQAPGKERELVASISVGGGSTYYADSVKGRFTISRDNAKNTVYLQMNSLKPEDTAVYYCAADPSPYGDEYDYWGQGTQVTVSS | low polyreactivity |
| QVQLVESGGGLVQAGGSLRLSCAASGLIFRRNAMGWYRQAPGKERELVAAISRSSGSTYYADSVKGRFTISRDNAKNTVYLQMNSLKPEDTAVYYCAVHVWGTYGSWEYYYWGQGTQVTVSS | high polyreactivity |
| QVQLVESGGALVQAGGRLRLSCAASGTFERKVMGWYIHAPGKERELVAAISRSGSSTYYADSLKGRFTISRDNAKNTVYLQMNSLKPEDTAVYYCAARGTKQHFNYWGQGTQVTVSS | high polyreactivity |

| Sequence | polyreactivity (PSR sort gate) |
| --- | --- |
| QVQLVESGGGLVHAGGSLRLSCAASGSTSGIYAMGWYRQAPGKERELVAAIDTSGGSTYADSLKGRFTISRDNAKYTVYLQMNSLKPEDTAGYYCAKPFSSNSWSHGYWGQGTQVTVSS | low polyreactivity |
| QVQLVESGGGLVQAGGSLRLSCAASGRIFTPYVLGWYRQAPGKERELVARISWTGSSTYYADSVKGRFTISRDNAKNTVYLQMNSLKPEDTAVYYCAKRLTRFYTRLEYWGQGTQVTVSS | low polyreactivity |
| QVQLVESGGGLVQAGGSLRLSCAASGFTLGHYAMGWYRQAPGKERELVAVITSGSSTNYADSVKGRFTISRDNAKNTVYLQMNSLKPDDTAVYYCAAEDPYFKWLYYYWGQGTQVTVSS | low polyreactivity |
| QVQLVESGGGLVQAGGSLRLSCAASGSTFYWYAMGWYRPAPGKERELVAAISSGADTSYADSVKGRFTISRDNAKNTVYLQMNSLKPEDTAVYYCARRYRARGSMYYWGQGTKVTVSS | high polyreactivity |
| QVHLVESVGGLVQAGGSLRLSCASSGFTFPYYAMGWYRQQPGKERELVAAISWIGDSTYYADSVKGRFTISRDNAKNTVYLQMNSLKPEDTAVYYCAAGYKWSIPNRDYDYWGQGTQVTVSS | low polyreactivity |
| QVQLVESGGGLVQAGGSLRLSCAESGLTFWDYVMGWYRQAPGKEMELVAAISDSGGDTYYADSVKGRFTISRDNAKNTVYLQMNSLKPEDTAVYYCAAEYAEYVLEYYRLYEYWGQGTQVTVSS | high polyreactivity |
| QVQLVESGGGLVQAGGSLRLSCAASGFTFSLNTMGWYRQAPGKERELVAAINSGDSTYADSVKGRFTISRDNAKNTVYLQMNSLKPEDTAVYYCNADPDWWYPYNYWGLGTQVTVSS | low polyreactivity |
| QVQLVESGGGLVQAGGSLRLSCAASGITFQYYAMGWYRQAPGKERELVASISYRGGRTYYADSVKGRFTISRDNAKNTVYLQMNSLKQEDTSVYYCAADWRYTTFWTLRYYGFDYWGQGTQVTVSS | high polyreactivity |
| QVQLVESGGGLVQAGGSLRLSCAASGYIFFTYTMGWYRQAPGKERELVAAINGSVGSTYYADSVKGRFTISRDNAKNTVYLQMNSLKPEDTAVYYCAAEVVDFGYSYEWEDDYWGQGTQVTVSS | high polyreactivity |
| QVQLVESGGGLVQAGGSLRLSCAASGRIFRVNAMGWYRQAPGKERELVATITGSGGSTYYADSVKGRFTISRDNAKNTVHLQMNSLKPEDTAVYYCAVDRGRGSTYKYDYWGQGTQVTVSS | low polyreactivity |
| QVQLVESGGGLVQAGGSLRLSCAASGRIFYKYTMGWYRQAPGKERELVAAITDSDDSTYYADSVKGRFTISRDNAKITVYLQMNSLKPEDTAVYYCAASGPVTESDMDYWGQGTQVTVSS | low polyreactivity |
| QVQLVESGGGLVQAGGSLRLSSAASGSIFAYNDMGWYRQAPGKERELVAAITWSGDSTYYADSVKGRFTISRDNAKNTVYLQMNSLKPEDTAVYYCATDPLFKTSTRWKYDYWGQGTQVTVSS | low polyreactivity |
| QVQLVESGGGLVQAGGSLRLSCAASGSIFAWYALGWYRQAPGKERELVADITQSGGSTYYADSVKGRFTISRDNAKNTVYLQMNSLKPEDTAVYYCVDYWYNYLQSGWEDDYWGQGTQVTVSS | low polyreactivity |
| QVQLVESGGGLVQAGGSLRLSLAASGSNFSSYAMGWYRQAPGKEREWVAAIRLIGGTTYYADSVKGRFTISRDNAKNTVYLQMNSLKPEDTAVYYCNAPSYPDYIYWSQRYDYDYWGQGTKVTVSS | low polyreactivity |
| QVQLVESGGGLVQAGGSLRLSCAASGSTFRWNTMGWYIQAPGKERELVAAISYSGGITYYADSVKGRFTISRDNAKNTVYLQMNSLKPEDTAVYYCYATRVRGWYVTRYYYWGQGSQVTVSS | high polyreactivity |
| QVQLVESGGGLVQAGGSLRLSCAASGITFTQYAMGWYRQAPGKELELVAAITSSGGSTYYADSVKERFTISRDNAKNTVYLQMNSLKPEDTAVYYFIAVRRRQSDYWGQGTQVTVSS | high polyreactivity |
| QVQLVESGGGLVQAGGSLRLSCAASGFIFGANAMGWYRPAPGKESELVAAISWNGGRTYYADSVKWRFTISRDNAKNTVYLQMNSLKPEDTAVSYCAATGWYGLPTSYRVNYWGQGTQVTVSS | high polyreactivity |
| QVQLVESGGGLVQAGGSLRLSCAASGSTFGANAMGWYRQAPGKEREFVAAISRSGVRTYYADTVKGRFTMSRDNAKITVYFQMNSLKPEDTAVYYCAADGYWWTYTRYDYWGQGTQVTVSS | low polyreactivity |
| QLQLVESGGGLVQAGGSLRLSCAASGRTFRINTMGWYRPAPGKERELVATITGSGGSTYYADSVKGRFTISRDNAKNTVYLQMNSLKPEDTAVYYCAAVGDQNEYDYWGQGTQVTVSS | low polyreactivity |
| QVQLVESGGGLVQAGGSLRLSCAASGSTMLDYAMGWYRQAPGKERELVAAISWSGGSTRYADSVKGRFTISRDNAKNTVFLQMNSLKPEDTAVYYCAATGFSYRYFQTRDYWGQGTQVTVSS | high polyreactivity |
